Tested on: MS2 coat protein
Assay: apparent KD of MS2 coat protein; designed switch direction (-1 OFF switch, 1 ON switch): 1; higher = weaker reporter binding
Procedure, shortened: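 The buffer was Tris-HCl pH 7.5 with KCl, MgCl2, BSA, DTT, tRNA and Tween-20. In it, SNAP-549-labelled MS2 coat protein was titrated in doubling steps from 0.7 or 1.5 nM to 3 µM over chip-bound RNA switches transcribed by stalled E. coli RNA polymerase on Illumina chips. Apparent KD is the per-design median over clusters of curve fits to normalised fluorescence.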

[1] = input ligand: microRNA oligo, concentration not stated
[2] = Eterna round: R95, input ligand: FMN 200 uM
[3] = Eterna round: R95, input ligand: microRNA oligo, concentration not stated
[4] = Eterna round: R95, input ligand: none

Sequence | apparent KD of MS2 coat protein (input ligand: FMN 200 uM) [nM] | apparent KD of MS2 coat protein [1] [nM] | apparent KD of MS2 coat protein (input ligand: none) [nM] | apparent KD of MS2 coat protein [2] [nM] | apparent KD of MS2 coat protein [3] [nM] | apparent KD of MS2 coat protein [4] [nM]
GCCAUCGAGUGAGGAUAUGGCACCGAAACGGUGCCAGAAGGCAUGUCAAAAGACAUGAGGAUCACCCAUGUAUUAUCGAUGGCA [Mat - Same State NG 1 - JL mod - D88] (Eterna round: R96, puzzle: Same State NG 1) | 28.5 | 208 | 237 | – | – | –
AUAAGUUCGAUGCUCGUCUCUCCGUACAAACAUGAGGAUCACCCAUGUGAUCGGGAAGUAGCCCAAUCAGUAUGGCC [Oranlaen] (puzzle: Sensor for hsa-mir-208a) | – | – | – | 26.6 | 30 | 31.3
UGUUGUAAUACAGGAUAUCUAUUAUUUUUAUUUAGAGAAGGGUAAUCACAUGAGGAUCACCCAUGUAUAUACGAGGAAGAAGAG [JMF's solution 4] (Eterna round: R96, puzzle: Same State NG 1) | – | 126 | – | – | – | –
AGCUAUUAAUCAGGAUAUAGGGACAUGAGGAUCACCCAUGUGUACAUGAGUAAAUGUGAUCACGUCUAGAAGGGAUUACUAACA [SameState NG2 #38] (Eterna round: R96, puzzle: Same State NG 2) | 184 | 92.9 | 133 | – | – | –
AUAUUACAUGAGGAUCACCCAUGUCUCUAAAGUCGAGGAUAUGGGCAGGUUAUAUCCGAACCAGAAGGCGAAUUAU [SS1 Teenbexe 9] (puzzle: Same State 1) | – | – | – | 66.9 | 317 | 633
AUUCGUUUGAUAGGAUAUCACUUUACAUGAGGAUCACCCAUGUUCACCACGCUGGUCUCUUAUACUGAGAAGGAUCUUGAUGAC [JR_SSNG2_Sub009] (Eterna round: R96, puzzle: Same State NG 2) | 22.9 | 18.8 | 28 | – | – | –
AGUCCAGCCUGAGCUGGACAAAAGCAUGUACAUGAGGAUCACCCAUGUUCAUGUACAAGCUUUUUGCUCGUCUUAUG [salish99_208a_r3_051] (puzzle: Sensor for hsa-mir-208a) | – | – | – | 1040 | 17 | 634
AAUUAUUAACAUGAGGAUCACCCAUGUAAAACAUGGAUUAACAAGCCUUUUCGUUUUUGCUCGUCUUAUAUUAUUAA [Bojan's Design] (puzzle: Sensor for hsa-mir-208a version 2) | – | – | – | 167 | – | 199
UUAUAACAUGAGGAUCACCCAUGUCAACAAAGUCGAGGAUAUGGGCAAGAAUUGAGAGAACCAGAAGGCGAAUAUU [Mat - Same State 1 - Mod of UCT - D31] (puzzle: Same State 1) | – | – | – | 78.4 | 131 | 148
GGCUAUCGCGUACGAUAGCUGAAGCAUGUACAUGAGGAUCACCCAUGUCAUGUACAAGCUUUUUGCUCGUCUUAUUG [JL-shm-2.32 JL mod] (puzzle: Sensor for hsa-mir-208a) | – | – | – | 243 | 13.9 | 348
ACAUGAGAGAUAGGAUAUGCUGUACCUACAUGUGACAUGAGGAUCACCCAUGUGGUAAGUAUGAGGCAGAAGGAUCAGAUAUGU [Equivalence 49 - Jieux - Same State NG 2] (Eterna round: R96, puzzle: Same State NG 2) | 13.6 | 17.3 | 23.2 | – | – | –
CACAAUCUAUCUGAGGAUAUCAUGAAAAAAACAUGAGGAUCACCCAUGUGCAGGAAAACUGCAUAUGAGAAGGCAGAUAGAUUGC [salish99_SS2_r3_013] (Eterna round: R96, puzzle: Same State 2) | – | 452 | – | – | – | –
UACAAUCUAUCUGAGGAUAUCAUGAAAAAAACAUGAGGAUCACCCAUGUGCAGGAAAACUGCAUAUGAGAAGGCAGAUAGAUUGU [salish99_SS2_r3_006] (Eterna round: R96, puzzle: Same State 2) | – | 585 | – | – | – | –
CUACGCGCCGCAGGAUAUGCCGACCCGUGUUGAGCAGAAGGGCGAAACAUGAGGAUCACCCAUGUUGAAAGAGCGCAAAAUUAA [Erteerte] (Eterna round: R96, puzzle: Same State NG 1) | 23.5 | 16.4 | 30.1 | – | – | –
UUAUAACAUGAGGAUCACCCAUGUCAACAAAGUCGAGGAUAUGGGCAGAGAGGAGAAGAACCAGAAGGCGAAUAUU [Mat - Same State 1 - Mod of UCT - D38] (puzzle: Same State 1) | – | – | – | 91.2 | 98.4 | 94.9
GCUACGGACGUAGGAUAUGUAGGAUAUGGUGAGAGCUAAGCUUGGAAGUCACUUCAACCAGAAGGACAGAAGGACGCCGUGAGG [pwkr ssNG2 2FMN + F9.18] (Eterna round: R96, puzzle: Same State NG 2) | 241 | 13.4 | 52.2 | – | – | –

Sequence | apparent KD of MS2 coat protein (input ligand: FMN 200 uM) [nM] | apparent KD of MS2 coat protein [1] [nM] | apparent KD of MS2 coat protein (input ligand: none) [nM] | apparent KD of MS2 coat protein [2] [nM] | apparent KD of MS2 coat protein [3] [nM] | apparent KD of MS2 coat protein [4] [nM]
GCUCGACUGAUGGCCUACAUGAGGAUCACCCAUGUGACUGGGCAGGAUAUCUAGAUGCAGGAUGUAGAGAAGGGCCUGUCGAGC [SameState NG3 #43] (Eterna round: R96, puzzle: Same State NG 3) | 589 | 201 | 426 | – | – | –
CUUUUUAAUGCAGGAUAUGAUCAACAUGAGGAUCACCCAUGUGGCGUUGUGAGUAGGGAGAGUGAUCAGAAGGGCAUCUCCUCG [SS-NG2-LRO08] (Eterna round: R96, puzzle: Same State NG 2) | 68 | 45.1 | 62.4 | – | – | –
UGUUGUAUUACAGGAUAUCUAUUAUUUUUAUAUAGAGAAGGGUAUUCACAUGAGGAUCACCCAUGUAUAUACGAGGAAGUUGUG [JMF's solution 28] (Eterna round: R96, puzzle: Same State NG 1) | – | 29.6 | – | – | – | –
ACAUGAGACUUAGGAUAUGUUGUACCUACAUGUGACAUGAGGAUCACCCAUGUGGUAAGUAUGAGGCAGAAGGAAGAGAUAUGU [Equivalence 39 - Jieux - Same State NG 2] (Eterna round: R96, puzzle: Same State NG 2) | 23.5 | 45.9 | 73.1 | – | – | –
AGGCUCGUGCUAGGAUAUCUAGGAUAUGGACGAGGAUUACCCGAGCAGCAUUAGCGCACCAGAGGAGAGAAGGAGCGACAUGCG [pwkr ssNG2 2F5 2FMN.11] (Eterna round: R96, puzzle: Same State NG 2) | 5.78 | 4.91 | 16 | – | – | –
GCUGCAAUAAACGCCUACAUGAGGAUCACCCAUGUAUGUAGGCAGGAUAUCGUUUGCAAAGCAAACGAGAAGGGCCGUAGUAGC [Mat - Same State NG 3 - JL Mod - D35] (Eterna round: R96, puzzle: Same State NG 3) | 26.3 | 44.6 | 66.1 | – | – | –
ACAUGAGAGAUAGGAUAUCAUGUACCUACAUGUGACAUGAGGAUCACCCAUGUGGUAAGUAUGAGUGAGAAGGAUCAGAUAUGU [Equivalence 35 - Jieux - Same State NG 2] (Eterna round: R96, puzzle: Same State NG 2) | 47.9 | 272 | 467 | – | – | –
AUAAGGCAAGCUUUUUUCUCGUAGUGUAAACAUGAGGAUCACCCAUGUGCCCGCUCUGGAUCUUUGGAUCGCAGAAA [Lavegeaus] (puzzle: Sensor for hsa-mir-208a) | – | – | – | 26.6 | 18.2 | 25.9
GGAGCCGGCACCGAGGAUAUUCAUAUUAAAACAUGAGGAUCACCCAUGUAGCUCGAAAGAGCUUGGGAGAAGGCGGAUCGGCUCG [Xeonanis - 29] (puzzle: Same State 2) | – | – | – | 30.5 | 1010 | 827
UGUCCAGCCUGAGCUGGACAAAAGCAUGUACAUGAGGAUCACCCAUGUUCAUGUACAAGCUUUUUGCUCGUCUUAGG [salish99_208a_r3_066] (puzzle: Sensor for hsa-mir-208a) | – | – | – | 695 | 19.2 | 506
ACAUGAGAGAUAGGAUAUCUUGUACCUACAUGUGACAUGAGGAUCACCCAUGUGGUAAGUAUGAGGGAGAAGGGUCAGAUAUGU [Equivalence 45 - Jieux - Same State NG 2] (Eterna round: R96, puzzle: Same State NG 2) | – | 42.7 | – | – | – | –
UUAUCCUUUUUUUACAUGAGGAUCACCCAUGUUUUUCUUACGUAGGAUAUCGUUGUUUUUUUUUACGAGAAGGACGUAGUAAGA [JR_SSND3_Sub061] (Eterna round: R96, puzzle: Same State NG 3) | 41.3 | 31.9 | 37.1 | – | – | –
AAUUAACAUGAGGAUCACCCAUGUCGUAUUAUGGGAGGAUAUACGUGGACCGUAGUCCGCGUAGAAGGCCUAAUUA [Mat - Same State 1 - Mod of JL - D21] (puzzle: Same State 1) | – | – | – | – | 34.6 | –
GUGGUCAGACAUGAGGAUCACCCAUGUGGAAUAAAUAAGGAGAAGGAUAUCGAAUAUAGGAUAUACGAGAAGGUUUGGUUGGUG (Eterna round: R96, puzzle: Same State NG 3) | 120 | 67.3 | 90.6 | – | – | –
UGAAUAAUGUUAGGAUAUACAUGAGGAAUCCUCGUAGAAGGAACAUGACAUGAGGAUCACCCAUGUAGCGCUCAGAAGAGCGCA [Mat - Same State NG 1 - JL mod - D50] (Eterna round: R96, puzzle: Same State NG 1) | – | 73.4 | – | – | – | –

Source: the supplement of paper PMC9170038
